# Test results: patent US8466258B2, “Polypeptides, cyclic polypeptides and pharmaceutical comprising thereof for non invasive specific imaging of fibrosis” (INSERM (Institut National de la Santé et de la Recherche …, priority 2008, dated 2013)
# Bridge positions count the residues as written; N and C are the ends. Peptide text beside a SMILES is read from it. * marks the point of attachment. Biotin = O=C1N[C@H]2[C@H](CS[C@H]2CCCCC(=O)*)N1
# Legend:
# laminin = laminin (Mus musculus, UniProt P02468+P02469+P19137); experiment: SPR: laminin binding to collagelin
# 9O12.2 IgG = experiment: SPR: 9O12.2 IgG injected over immobilized biotin-collagelin; type: binding; settings: 9O12.2 IgG 5 μg/ml, competitor 25 μg/ml
# Description: A Biacore 2000 instrument (GE Healthcare Europe GmbH, Orsay, France) (Université Paris 7, Institut Jacques Monod, Paris, France) was used to characterize the binding properties of the synthesized peptides. Biotinylated peptides (˜20 RU) were covalently coupled to the surface of a SA-sensorchip.
# Glycine-HCl (10 mM pH 2.5) was injected for 30 s at 20 μL·min-1 to regenerate the sensorchip between each sample. Sensorgrams were analyzed with the BIA evaluation version 3.1 software. Kinetic constants (kon, koff) were deduced from the analysis of association and dissociation rates at four different IgG concentrations ranging from 1.25 to 10 μg·mL^−1. The dissociation constant KD was calculated from KD=koff/kon. […] In some experiments, the peptide was reduced by DTT on the sensor chip before injection of the IgG. Competition experiments were performed by mixing the IgG with recombinant soluble GPVI (25 μg·mL^−1). Collagen binding to the peptide was analysed by injecting type I equine collagen (Collagen Horm, Nycomed. Germany) (200 μg·mL^−1 in EBS-EP buffer) onto the peptide-coated sensorchip.
# [1] = system: type I equine fibrillar collagen (Horm); experiment: Solid phase assay on collagen-coated microtitration plates; type: binding; settings: competitor mixed with collagelin, 50 and 20 μg/mL (3J24.2: 50 μg/mL)
Molecule,Kd (laminin) [µM],inhibition of 9O12.2 IgG binding to immobilized biotin-collagelin by competitor (9O12.2 IgG),inhibition of biotin-collagelin binding to collagen by competitor [1]
CSCC[C@@H]1NC(=O)[C@H](C(C)C)NC(=O)[C@H](CCCNC(=N)N)NC(=O)[C@@H]2CCCN2C(=O)CNC(=O)[C@@H](NC(=O)CNC(=O)[C@H](CO)NC(=O)CNC(=O)[C@H](CO)NC(=O)CCCC[C@@H]2SC[C@@H]3NC(=O)N[C@@H]32)CSSC[C@@H](C(N)=O)NC(=O)[C@@H]2CCCN2C(=O)CNC(=O)[C@H](CCC(=O)O)NC(=O)[C@H](CC(=O)O)NC(=O)[C@H](CC(=O)O)NC(=O)CNC(=O)[C@H](CC(C)C)NC(=O)[C@H](Cc2c[nH]cn2)NC(=O)[C@H](CC(C)C)NC(=O)CNC(=O)[C@H](Cc2c[nH]cn2)NC1=O [collagelin] (Biotin-SGSGCGPRVMHGLHLGDDEGPC-NH2; disulfide 5-22),18.3,,
"recombinant soluble GPVI: soluble recombinant GPVI-Fc fusion protein (protein, left off: a dimerising Fc or GST, soluble recombinant GPVI-Fc fusion protein) QSGPLPKPSLQALPSSLVPLEKPVTLRCQGPPGVDLYRLEKLSSSRYQDQAVLFIPAMKRSLAGRYRCSYQNGSLWSLPSDQLELVATGVFAKPSLSAQPGPAVSSGGDVTLQCQTRYGFDQFALYKEGDPAPYKNPERWYRASFPIITVTAAHSGTYRCYSFSSRDPYLWSAPSDPLELVVTGTSVTPSRLPTEPPSPVAEFSEATAELTVSFTNEVFTTETSRSITASPKESDSPAGPARQYYTKGN",,completely inhibited,completely inhibited
